Laboratory results reported in article PMC6635492, “Structural basis for the adsorption of a single-stranded RNA bacteriophage” (Nature Communications, 2019).

Target: the molecule itself
Experiment: cryo-EM structure; single-particle cryo-EM of MS2 virions incubated with purified F-pili for 30 min at 37 °C; grids tilted 0°, 15° or 30°; maps at 5.0 Å (whole complex), 6.2 Å (F-pilus/Mat, local mask) and 5.6 to 7.3 Å (three classes)

B1: F-pilin, subunit of the E. coli F-pilus encoded by the pOX38 plasmid (natural protein, E. coli (pOX38 plasmid), UniProt P04737 52-121, looked up)
chain: AGSSGQDLMASGNTTVKATFGKDSSVVKWVVLAEVLVGAVMYMMTKNVKFLAGFAIISVFIAVGMAVVGL
notes: F-pilin of the pOX38 (F) plasmid, mature pilin; its first five residues are printed as AGSSG; assembled as a five-start helical filament with one phospholipid per pilin; initial model PDB 5LER. numbers count on: the mature protein; Stood in the assay as the assembled filament (stoichiometric pilin-phospholipid complex); the number of subunits is not fixed; source: on the cells for cryo-ET
B1: binds.
